For one molecule, Kd and EC50 results are on record in patent CN116355089A.

One assay deals with 生物素标记的抗原多肽. The experiment in a line: BLI (Fortebio Octet), biotinylated peptide on SA biosensor, antibody at 1.56-100 nM.
For the next assay, the target named is 人IV型胶原蛋白α3链多肽 (human). The experiment in a line: indirect ELISA, purified antibody on plates coated with 0.5 μg/ml peptide.

Broadly, the Kd is the constant that tells how readily two partners part at equilibrium. A high value points to weaker binding. What is called EC50 is the concentration at which the effect is half-maximal.

B1: 4E5E2-1 (antibody, IgG1, V domains shown)
VH: EVQLQQSGAELVRSGASVKLSCTASGFNIKDSNIHWLIQRPEQDLEWIGWIDPDNGDSEYAPKFQGEATMTADTSSNTAYLQLSSLTSEDTAVYFCNAVNWDYFDYWGQGTTLTVSS
VL: DVVVTQTPLSLPVSLGDQASISCRSSQSLVHNNGNTYLHWYLQRPGQSPKLLIYKVSNRFSGVPDRVSGSGSGTDFTLKISRVEAEDLGVYFCSQSTHIPITFGSGTKLEIK
The molecule B1 displayed a Kd in the assay with 生物素标记的抗原多肽 of 0.399 nM. Besides, in the assay with 人IV型胶原蛋白α3链多肽 (human), the EC50 came to 4.64 ng/mL.
